Ends that are not written are not given here.
Biological target: Stx2a A-subunit (dissociated from recombinant Stx2a) (enterohemorrhagic Escherichia coli …, UniProt P09385 23-319)
Experiment: AlphaScreen or HTRF
Settings: both partners purified

Sequence of Stx2a A-subunit (dissociated from recombinant Stx2a) (P09385 23-319): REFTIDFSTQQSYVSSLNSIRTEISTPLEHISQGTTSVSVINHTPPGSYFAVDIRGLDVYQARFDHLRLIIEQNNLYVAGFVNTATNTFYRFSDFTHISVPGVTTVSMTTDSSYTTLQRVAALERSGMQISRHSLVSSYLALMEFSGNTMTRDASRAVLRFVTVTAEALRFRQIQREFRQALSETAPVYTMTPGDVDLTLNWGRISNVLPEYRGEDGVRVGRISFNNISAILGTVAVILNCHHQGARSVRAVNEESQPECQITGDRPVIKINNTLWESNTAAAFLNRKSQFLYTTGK

RRRRA-NH2 (source: synthetic peptide) [R4A-mono] gave an IC50 of 2700 nM.
